According to PMC6017737, “Functional Impact of the N-terminal Arm of Proline Dehydrogenase from Thermus thermophilus” (Molecules : A Journal of Synthetic Chemistry and Natural …, 2018):
Numbering of substitutions follows the chain as printed. Numbers in names are those of the source.

Key:
MBP-TtProDH ΔAB [1] = biological target: T1, MBP-TtProDH ΔAB (Thermus thermophilus, UniProt Q72IB8, V32D, form not given)
T1 construct: gene TT_C1214

MBP-TtProDH ΔA = biological target: T2, MBP-TtProDH ΔA (Thermus thermophilus, UniProt Q72IB8); assay: residual proline:DCPIP activity after incubation; flavin absorption spectra; format: biochemical; conditions: covalent; suicide inhibitor, flavin N(5)-Lys99 adduct; 40 µM enzyme, pH 7.4, 25 °C
T2 construct: gene TT_C1214; lacks N-terminal helix αA; start 19 (QVERLIKHRAKG...) derived from printed primer; N-terminal MBP tag kept; E. coli TOP10; tetramer; FAD

MBP-TtProDH ΔAB [2] = biological target: T3, MBP-TtProDH ΔAB (Thermus thermophilus, UniProt Q72IB8); assay: as above; format: biochemical; conditions: covalent; suicide inhibitor, flavin N(5)-Lys99 adduct; 40 µM enzyme, pH 7.4, 25 °C
T3 construct: gene TT_C1214; lacks N-terminal helices αA and αB; start 29 (KGLVRRYVAG...) derived from printed primer and V32/Y35/V36 numbering; N-terminal MBP tag kept; E. coli TOP10; tetramer; FAD

MBP-TtProDH ΔAB [3] = biological target: T4, MBP-TtProDH ΔAB (Thermus thermophilus, UniProt Q72IB8, V36D, form not given)
T4 construct: gene TT_C1214

MBP-TtProDH EE = biological target: T5, MBP-TtProDH EE (Thermus thermophilus, UniProt Q72IB8, F10E/L12E, form not given); assay: residual proline:DCPIP activity after incubation; flavin absorption spectra; format: biochemical; conditions: covalent; suicide inhibitor, flavin N(5)-Lys99 adduct; 40 µM enzyme, pH 7.4, 25 °C
T5 construct: gene TT_C1214; full-length, Phe10 and Leu12 replaced by Glu; N-terminal MBP tag kept; E. coli TOP10; tetramer; FAD

[4] = biological target: the molecule itself; assay: native MS; nanoflow ESI-MS of the native MBP-fused variants; source backing pressure 7.8 mbar, cone voltage 100-150 V
[5] = biological target: the molecule itself; assay: SEC; analytical gel filtration on Superdex 200 of each MBP-fused variant alone, as described in ref. 19
[6] = biological target: the molecule itself; assay: SEC; 20 µM EE and 20 µM ΔABC mixed in 50 mM sodium phosphate pH 7.4, incubated at room temperature overnight, then Superdex 200 gel filtration; SDS-PAGE of the fractions

T4 sequence (Q72IB8 29-307 V36D, form open): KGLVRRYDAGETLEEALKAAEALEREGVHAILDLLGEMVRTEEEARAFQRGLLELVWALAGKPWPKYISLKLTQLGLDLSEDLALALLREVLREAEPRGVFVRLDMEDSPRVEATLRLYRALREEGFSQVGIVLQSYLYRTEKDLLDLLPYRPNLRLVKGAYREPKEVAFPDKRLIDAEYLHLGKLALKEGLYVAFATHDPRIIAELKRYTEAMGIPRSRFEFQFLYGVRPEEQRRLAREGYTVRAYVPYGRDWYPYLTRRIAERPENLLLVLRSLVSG
T1 sequence (Q72IB8 29-307 V32D, form open): as the sequence (Q72IB8 29-307 V36D, form open) above, with V4D, D8V counted along it

## C#CCNCC(=O)O [N-propargylglycine]
MBP-TtProDH ΔAB [1]
  % residual activity after 90 min at 2.5 mM: 30%
MBP-TtProDH ΔA
  % residual activity after 90 min at 2.5 mM: For ΔA and ΔAB the activity loss is even more pronounced
MBP-TtProDH ΔAB [2]
  % residual activity after 90 min at 2.5 mM: For ΔA and ΔAB the activity loss is even more pronounced
MBP-TtProDH ΔAB [3]
  % residual activity after 90 min at 2.5 mM: 63%
MBP-TtProDH EE
  % residual activity after 90 min at 2.5 mM: ~ 13%

B1: MBP-TtProDH ΔAB (MBP-TtProDH lacking helices αA and αB) (domain or fragment, Thermus thermophilus)
chain: KGLVRRYVAGETLEEALKAAEALEREGVHAILDLLGEMVRTEEEARAFQRGLLELVWALAGKPWPKYISLKLTQLGLDLSEDLALALLREVLREAEPRGVFVRLDMEDSPRVEATLRLYRALREEGFSQVGIVLQSYLYRTEKDLLDLLPYRPNLRLVKGAYREPKEVAFPDKRLIDAEYLHLGKLALKEGLYVAFATHDPRIIAELKRYTEAMGIPRSRFEFQFLYGVRPEEQRRLAREGYTVRAYVPYGRDWYPYLTRRIAERPENLLLVLRSLVSGLE
notes: Proline dehydrogenase (TtProDH), Thermus thermophilus, lacking helices αA and αB; C-terminal tail of TtProDH (part of helix α8), residues 288-309 as printed; not shown: MBP, N-terminal, kept
[4]
  stoichiometry N: 2
[5]
  stoichiometry N: 4

B2: MBP-TtProDH ΔAB V32D (domain or fragment, Thermus thermophilus)
chain: B1 chain with V4D
notes: Proline dehydrogenase (TtProDH), Thermus thermophilus, lacking helices αA and αB, with V32D in helix αC; C-terminal tail of TtProDH (part of helix α8), residues 288-309 as printed; lacking in a part of the preparation; The preparation is a mixture: partially intact and partially cleaved before R288 (two subunit masses, 73.0 and 75.5 kDa); Mainly dimers by SEC, tetramers and dimers by …
[4]
  stoichiometry N: 4
[5]
  stoichiometry N: 2

B3: MBP-TtProDH ΔAB V36D (domain or fragment, Thermus thermophilus)
chain: B1 chain with V8D
notes: Proline dehydrogenase (TtProDH), Thermus thermophilus, lacking helices αA and αB, with V36D in helix αC; C-terminal tail of TtProDH (part of helix α8), residues 288-309 as printed; lacking in a part of the preparation; The preparation is a mixture: partially intact and partially cleaved before R288 (two subunit masses, 73.0 and 75.5 kDa); Mainly dimers by SEC, tetramers and dimers by …
[4]
  stoichiometry N: 4
[5]
  stoichiometry N: 2

B4: MBP-TtProDH ΔAB Y35F (domain or fragment, Thermus thermophilus)
chain: B1 chain with Y7F
notes: Proline dehydrogenase (TtProDH), Thermus thermophilus, lacking helices αA and αB, with Y35F in helix αC; C-terminal tail of TtProDH (part of helix α8), residues 288-309 as printed; Identical subunits by denaturing MS; not shown: MBP, N-terminal, kept
[5]
  stoichiometry N: 4

B5: MBP-TtProDH ΔA (MBP-TtProDH lacking helix αA) (domain or fragment, Thermus thermophilus)
chain: QVERLIKHRAKGLVRRYVAGETLEEALKAAEALEREGVHAILDLLGEMVRTEEEARAFQRGLLELVWALAGKPWPKYISLKLTQLGLDLSEDLALALLREVLREAEPRGVFVRLDMEDSPRVEATLRLYRALREEGFSQVGIVLQSYLYRTEKDLLDLLPYRPNLRLVKGAYREPKEVAFPDKRLIDAEYLHLGKLALKEGLYVAFATHDPRIIAELKRYTEAMGIPRSRFEFQFLYGVRPEEQRRLAREGYTVRAYVPYGRDWYPYLTRRIAERPENLLLVLRSLVSGLE
notes: Proline dehydrogenase (TtProDH), Thermus thermophilus, lacking helix αA; C-terminal tail of TtProDH (part of helix α8), residues 288-309 as printed; Cloned with EcoRI and HindIII into pBAD-MBP; not shown: MBP, N-terminal, kept
[4]
  stoichiometry N: 2
[5]
  stoichiometry N: 4

B6: MBP-TtProDH ΔABC (MBP-TtProDH lacking helices αA, αB and αC) (domain or fragment, Thermus thermophilus, UniProt Q72IB8 38-287, looked up)
chain: GETLEEALKAAEALEREGVHAILDLLGEMVRTEEEARAFQRGLLELVWALAGKPWPKYISLKLTQLGLDLSEDLALALLREVLREAEPRGVFVRLDMEDSPRVEATLRLYRALREEGFSQVGIVLQSYLYRTEKDLLDLLPYRPNLRLVKGAYREPKEVAFPDKRLIDAEYLHLGKLALKEGLYVAFATHDPRIIAELKRYTEAMGIPRSRFEFQFLYGVRPEEQRRLAREGYTVRAYVPYGRDWYPYLT
notes: Proline dehydrogenase (TtProDH), Thermus thermophilus, lacking the whole N-terminal arm; PDB 5M42)'; the construct encodes up to residue 309, but the observed species is C-terminally truncated, cleaved before Arg288 (residues 288-309 removed); The difference of the predicted masses of ΔAB and ΔABC (75.5 against 74.4 kDa) fits a start at G38; not shown: MBP, N-terminal, kept
[4]
  stoichiometry N: 4
[5]
  stoichiometry N: 2

B7: MBP-TtProDH variant EE (MBP-TtProDH with Phe10 and Leu12 replaced by Glu) (enzyme, Thermus thermophilus)
chain: MNLDLAYRSEVEGVAGHPQVERLIKHRAKGLVRRYVAGETLEEALKAAEALEREGVHAILDLLGEMVRTEEEARAFQRGLLELVWALAGKPWPKYISLKLTQLGLDLSEDLALALLREVLREAEPRGVFVRLDMEDSPRVEATLRLYRALREEGFSQVGIVLQSYLYRTEKDLLDLLPYRPNLRLVKGAYREPKEVAFPDKRLIDAEYLHLGKLALKEGLYVAFATHDPRIIAELKRYTEAMGIPRSRFEFQFLYGVRPEEQRRLAREGYTVRAYVPYGRDWYPYLTRRIAERPENLLLVLRSLVSGLE
notes: Proline dehydrogenase (TtProDH), Thermus thermophilus, from its start to residue 287; C-terminal tail of TtProDH (part of helix α8), residues 288-309 as printed; The last residues of the printed tail (LE) may stem from the construct and not from the natural protein (my surmise); also called MBP-TtProDH EE; not shown: MBP, N-terminal, kept
[6]
  stoichiometry N: 4
